How the values were obtained:
[1] = tested on: recombinant human macrophage stimulating protein (MSP)
[2] = tested on: murine MSP C677A analog
[3] = tested on: recombinant murine macrophage stimulating protein (MSP)
[4] = tested on: human MSP C672A analog
Sequence of human MSP C672A analog (chain, as listed by the source C672A): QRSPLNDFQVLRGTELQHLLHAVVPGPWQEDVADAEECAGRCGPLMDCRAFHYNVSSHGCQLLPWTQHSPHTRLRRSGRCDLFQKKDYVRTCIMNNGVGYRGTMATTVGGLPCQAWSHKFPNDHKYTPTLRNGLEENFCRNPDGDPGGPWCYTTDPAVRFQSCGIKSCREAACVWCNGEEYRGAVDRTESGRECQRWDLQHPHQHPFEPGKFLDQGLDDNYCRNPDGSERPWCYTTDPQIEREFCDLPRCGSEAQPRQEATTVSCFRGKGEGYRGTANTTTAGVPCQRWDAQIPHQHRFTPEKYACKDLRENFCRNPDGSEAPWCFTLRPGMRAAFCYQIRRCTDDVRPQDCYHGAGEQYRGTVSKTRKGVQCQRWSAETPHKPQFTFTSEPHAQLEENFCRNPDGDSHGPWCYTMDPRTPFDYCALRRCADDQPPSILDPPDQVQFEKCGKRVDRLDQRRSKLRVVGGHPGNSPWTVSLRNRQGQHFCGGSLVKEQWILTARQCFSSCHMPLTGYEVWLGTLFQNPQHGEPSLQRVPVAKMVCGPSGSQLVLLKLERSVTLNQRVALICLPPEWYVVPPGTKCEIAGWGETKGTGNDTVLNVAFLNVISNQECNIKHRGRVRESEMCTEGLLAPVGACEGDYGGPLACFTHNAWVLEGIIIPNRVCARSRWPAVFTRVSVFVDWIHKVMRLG

Sequence of human kallikrein (Enzyme System Products) (chain, as listed by the source): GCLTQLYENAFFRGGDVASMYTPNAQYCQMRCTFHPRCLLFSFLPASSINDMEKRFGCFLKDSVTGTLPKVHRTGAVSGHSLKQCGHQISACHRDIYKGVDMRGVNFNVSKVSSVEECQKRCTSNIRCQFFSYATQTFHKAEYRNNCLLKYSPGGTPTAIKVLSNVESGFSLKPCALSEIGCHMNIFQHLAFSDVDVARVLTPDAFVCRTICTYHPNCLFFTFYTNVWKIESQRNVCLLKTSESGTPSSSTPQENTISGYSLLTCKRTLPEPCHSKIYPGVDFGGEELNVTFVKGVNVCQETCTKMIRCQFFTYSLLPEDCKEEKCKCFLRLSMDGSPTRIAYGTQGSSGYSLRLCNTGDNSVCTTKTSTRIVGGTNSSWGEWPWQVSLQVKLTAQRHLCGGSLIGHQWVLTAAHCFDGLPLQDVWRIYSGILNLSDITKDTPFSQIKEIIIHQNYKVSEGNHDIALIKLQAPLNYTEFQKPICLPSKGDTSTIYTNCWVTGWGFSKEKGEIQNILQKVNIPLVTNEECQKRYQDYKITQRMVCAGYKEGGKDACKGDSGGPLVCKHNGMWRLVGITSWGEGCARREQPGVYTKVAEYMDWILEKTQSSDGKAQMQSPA
Sequence of murine MSP C677A analog (chain, as listed by the source C677A): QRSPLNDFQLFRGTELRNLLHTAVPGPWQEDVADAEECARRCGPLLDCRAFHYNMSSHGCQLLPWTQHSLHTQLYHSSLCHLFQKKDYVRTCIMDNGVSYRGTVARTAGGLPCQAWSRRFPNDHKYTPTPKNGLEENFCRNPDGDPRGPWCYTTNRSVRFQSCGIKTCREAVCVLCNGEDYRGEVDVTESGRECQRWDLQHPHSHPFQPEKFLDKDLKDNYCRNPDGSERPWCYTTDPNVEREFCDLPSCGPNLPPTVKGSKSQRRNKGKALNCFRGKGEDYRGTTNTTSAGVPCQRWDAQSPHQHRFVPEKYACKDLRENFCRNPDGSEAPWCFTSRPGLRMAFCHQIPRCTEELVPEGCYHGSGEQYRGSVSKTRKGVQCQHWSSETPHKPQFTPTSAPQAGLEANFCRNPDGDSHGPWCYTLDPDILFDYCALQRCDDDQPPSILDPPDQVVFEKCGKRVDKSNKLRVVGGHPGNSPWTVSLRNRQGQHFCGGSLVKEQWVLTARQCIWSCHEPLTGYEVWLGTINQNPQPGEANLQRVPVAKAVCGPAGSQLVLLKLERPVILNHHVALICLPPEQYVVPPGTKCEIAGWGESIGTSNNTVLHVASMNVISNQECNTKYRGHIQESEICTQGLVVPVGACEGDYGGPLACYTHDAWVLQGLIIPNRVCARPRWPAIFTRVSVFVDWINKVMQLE

human kallikrein (Enzyme System Products)
cleavage of proMSP seen by SDS-PAGE under reducing conditions [1]: Kallikrein treatment efficiently cleaves proMSP or proMSP analog between the α and β subunits | cleavage of proMSP analog seen by SDS-PAGE under reducing conditions [2]: Kallikrein treatment efficiently cleaves proMSP or proMSP analog between the α and β subunits | cleavage of proMSP seen by SDS-PAGE under reducing conditions [3]: Kallikrein treatment efficiently cleaves proMSP or proMSP analog between the α and β subunits | cleavage of proMSP analog seen by SDS-PAGE under reducing conditions [4]: Kallikrein treatment efficiently cleaves proMSP or proMSP analog between the α and β subunits

Source: patent publication US20040260064
